15 substances from US20190338048A1 can be followed below.

Several values for one entry are separate records, joined by “and”; a condition that tells them apart may be missing. Equal values may be shown once. Read-outs that look alike come from different tables or passages of the source.

Assay [1] addresses CR8071 lambda light chain (L1) with V133G_S176R, design 2188, System C.
For assay [2] the target is unchanged. In words: SMCA, LC-MS.
Assay [3] has as its target CR8071 lambda light chain (L1) with E124K_Y178R, design 2830, System C.
For assay [4] the target is unchanged. The experiment in a line: SMCA, LC-MS.
The target in assay [5] is CR8071 lambda light chain (L1) with E124R, design 2826. In words: SMCA: co-expression.
For assay [6] the target is unchanged. The experiment in a line: SMCA LC-MS, System C.
Assay [7] deals with CR8071 lambda light chain (L1) with S180E, designs 2816 and 2827. The experiment in a line: SMCA LC-MS, System C.
The target is the same in assay [8]. The experiment in a line: SMCA: H1, L1, H2, L2 co-expressed in CHO-3E7.
Assay [9] has the same target. The experiment in a line: SMCA: co-expression.
The target of assay [10] is Pertuzumab light chain (kappa) V133G_S176D, HA-tagged. In words: LCCA.
Assay [11] shares this target. The experiment in a line: LCCA. The source holds these as a separate data set.
Assay [12] deals with CAT-2200 light chain (lambda) V133I_L135K, FLAG-tagged. The experiment in a line: LCCA.
Assay [13] concerns the target Pertuzumab light chain (kappa) V133G_S176D, HA-tagged. The experiment in a line: LCCA. This is another data set of the same source.
For assay [14], the target named is CAT-2200 light chain (lambda) V133I_L135R_Y178F, FLAG-tagged. The experiment in a line: LCCA.
Assay [15] addresses CAT-2200 light chain (lambda) Y178K, FLAG-tagged. In words: LCCA.
Assay [16] has as its target SGN-CD19a kappa light chain (L2) with V133G_S176D, design 2188, Systems B and C. In words: SMCA, LC-MS.
For assay [17] the target is unchanged.
Assay [18] addresses SGN-CD19a kappa light chain (L2) with T178E_T180E, design 2830, System C. In words: SMCA, LC-MS.
Assay [19] shares this target.
In assay [20] the target is SGN-CD19a kappa light chain (L2) with Q124R_Q160K_T178R, design 2816. The experiment in a line: SMCA: co-expression.
The target is the same in assay [21]. In words: SMCA LC-MS, System C.
Assay [22] deals with SGN-CD19a kappa light chain (L2) with Q124K_T178R, design 2827. In words: SMCA LC-MS, System B.
The target is the same in assay [23]. In words: SMCA LC-MS, System C.
Assay [24] deals with SGN-CD19a kappa light chain (L2) with Q124E_Q160E_T180E, design 2826. The experiment in a line: SMCA: co-expression.
Assay [25] shares this target. In words: SMCA LC-MS, System B.
For assay [26] the target is unchanged. In words: SMCA LC-MS, System C.
Assay [27] deals with SGN-CD19a kappa light chain (L2) with T178E_T180E, design 2830. The experiment in a line: SMCA: co-expression.
Assay [28] has the same target. In words: SMCA LC-MS, System B.
Assay [29] concerns the target SGN-CD19a kappa light chain L2, design 2816 (Q124R_Q160K_T178R). The experiment in a line: SMCA, System B.
The target is the same in assay [30]. In words: SMCA, System C.
Assay [31] has the same target. In words: SMCA, System C, LC-MS.
For assay [32] the target is unchanged. In words: SMCA, System B, LC-MS.
Assay [33] concerns the target SGN-CD19a kappa light chain L2, design 2827 (Q124K_T178R). The experiment in a line: SMCA, System B.
The target is the same in assay [34]. In words: SMCA, System C.
Assay [35] has the same target. In words: SMCA, System C, LC-MS.
Assay [36] has the same target. The experiment in a line: SMCA, System B, LC-MS.
For assay [37], the target named is SGN-CD19a kappa light chain L2, design 2830 (T178E_T180E). In words: SMCA, System B.
The target is the same in assay [38]. The experiment in a line: SMCA, System B, LC-MS.

“CR8071 full-length IgG1 heavy chain (H1) with L124E, design 2188, System C”: in assay [1], the % H1L1 Pairing stood at 24.9%. For the same substance, the Change in % H1L1 Pairing with respect to wild type in [2] was -23.5%.
The substance “CR8071 full-length IgG1 heavy chain (H1) with L143E_K145T_Q179E, design 2830, System C” had a % H1L1 Pairing in assay [3] of 28%. For the same substance, in assay [4], the Change in % H1L1 Pairing with respect to wild type is -20.4%.
In assay [5], “CR8071 heavy chain (H1, lambda arm) with L143E_K145T, design 2826, full-length IgG1 with heterodimeric Fc” yielded a % H1L1 Pairing of 27.8%. Also, in assay [6], the Change in % H1L1 Pairing with respect to wild type was -40.3%.
On to “CR8071 heavy chain (H1, lambda arm) with Q179K, design 2816, full-length IgG1 with heterodimeric Fc”, for which, in assay [7], the Change in % H1L1 Pairing with respect to wild type was found to be 17%. In assay [8], the % H1L1 Pairing amounted to 99.3%.
As to “CR8071 heavy chain (H1, lambda arm) with S186R, design 2827, full-length IgG1 with heterodimeric Fc”, the % H1L1 Pairing in assay [9] came out at 98.2%. Moreover, the Change in % H1L1 Pairing with respect to wild type in assay [7] was 15.9%.
In the case of “Pertuzumab heavy chain Fab construct L124R”, the H2L2:H2L1 normalized median ratio, H2L2 share in [10] was found to be 83%; in assay [11] it was 84%; in [13], 86%. Further, the H2L2:H2L1 normalized median scalar value ln(r1/f1) in assay [10] is 1.56; in assay [11] it was 1.68; in assay [13], 1.8. Further, the H2L2:H2L1 normalized median ratio (H2L1 share) in assay [12] is 14%; in [14], 17%; in [15] it was 16%.
As to “SGN-CD19a full-length IgG1 heavy chain (H2) with L124R, design 2188, Systems B and C”, the Change in % H2L2 Pairing with respect to wild type in [16] is 38.7% and 19.9%. Besides, the % H2L2 Pairing in assay [17] was 92.9% and 99.5%.
As for “SGN-CD19a full-length IgG1 heavy chain (H2) with S186R, design 2830, System C”, the Change in % H2L2 Pairing with respect to wild type in assay [18] is 20%. For the same substance, the % H2L2 Pairing in assay [19] worked out at 99.6%.
With “SGN-CD19a heavy chain (H2, kappa arm) with L143E_K145T, design 2816, full-length IgG1 with heterodimeric Fc”, in assay [20], the % H2L2 Pairing stood at 79.7%. In addition, the Change in % H2L2 Pairing with respect to wild type in assay [21] came to 19.8%.
With “SGN-CD19a heavy chain (H2, kappa arm) with L143E_K145T_Q179E, design 2827, full-length IgG1 with heterodimeric Fc”, the Change in % H2L2 Pairing with respect to wild type in assay [22] is -15.3%; in assay [23], 25.1%.
As to “SGN-CD19a heavy chain (H2, kappa arm) with Q179K, design 2826, full-length IgG1 with heterodimeric Fc”, the % H2L2 Pairing in assay [24] is 89.7% and 98%. Also, the values for the Change in % H2L2 Pairing with respect to wild type in [25] and in assay [26] were 35.5% and 26.7%, respectively.
In assay [27], “SGN-CD19a heavy chain (H2, kappa arm) with S186R, design 2830, full-length IgG1 with heterodimeric Fc” showed a % H2L2 Pairing of 98.5%. Also, the Change in % H2L2 Pairing with respect to wild type in [28] was found to be 44.3%.
On to “SGN-CD19a heavy chain H2, design 2816 (L143E_K145T)”, for which the % H2L2 Pairing in [29] was found to be 25.1%; in [30], 79.7%. Besides, the Change in % H2L2 Pairing with respect to wild type in assay [31] is 19.8%; in [32] it was -12.5%.
As for “SGN-CD19a heavy chain H2, design 2827 (L143E_K145T_Q179E)”, the % H2L2 Pairing in assay [33] amounted to 22.3%; in [34], 85%. The Change in % H2L2 Pairing with respect to wild type in assay [35] was 25.1%; in [36], -15.3%.
The substance “SGN-CD19a heavy chain H2, design 2830 (S186R)” had a % H2L2 Pairing in assay [37] of 98.5%. The Change in % H2L2 Pairing with respect to wild type in assay [38] was found to be 44.3%.
